The supplement of paper PMC10567573
± gives the standard deviation.

Experiment: protein stability index of a GFP-peptide fusion (GPS, HEK-293T) (PSI 1-6); higher = more stable
[1] = treatment: DMSO, c terminus: a fixed tail appended
[2] = treatment: MLN4924 1 uM, 8 h, c terminus: a fixed tail appended
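Also: 24-mer peptide tiles fused after GFP, lentivirally expressed, FACS-sorted into six equal bins by GFP/DsRed ratio, decoded by Illumina sequencing, PSI is the read-weighted mean bin number.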

Sequence: FYHDHTKIIICSQNEEYLLTYINE [PLK2]
- protein stability index [1]: 2.57 ± 0.59
- protein stability index [2]: 2.58 ± 0.54

Sequence: PKNPALEAFLAQFSQLEDKFPGQS [TOR1AIP2]
- protein stability index [1]: 3.43 ± 0.1
- protein stability index [2]: 3.64 ± 0.15

Sequence: VCDSCYDSIKDEDRTSLATFHEGK [WDFY1]
- protein stability index [1]: 4.62 ± 0.28
- protein stability index [2]: 4.83 ± 0.26

Sequence: STFYPPYHSPELTTPPGHGTLDNS [NEUROD6]
- protein stability index [1]: 4.27 ± 0.091
- protein stability index [2]: 4.21 ± 0.22

Sequence: MDRKTRFIIHGFIDKGDESWVTDM [PNLIPRP1]
- protein stability index [1]: 2.48 ± 0.66
- protein stability index [2]: 2.51 ± 0.19

Sequence: LTVVSFYQVAALQGDLASLRAELQ [TNFSF13B]
- protein stability index [1]: 2.77 ± 0.7
- protein stability index [2]: 2.63 ± 0.68

Sequence: KKMEQNKTAATRYRQKKRAEQEAL [ATF4]
- protein stability index [1]: 4.48 ± 0.52
- protein stability index [2]: 4.55 ± 0.33

Sequence: YLEGFDPFNQSTFNNVVEQNFKNR [DLC1]
- protein stability index [1]: 2.89 ± 0.26
- protein stability index [2]: 3.15 ± 0.39

Sequence: SSVSPAVSKASSRRSSFSMEEES [TFE3]
- protein stability index (treatment: DMSO, c terminus: native): 5.44 ± 0.14
- protein stability index (treatment: MLN4924 1 uM, 8 h, c terminus: native): 5.28 ± 0.17

Sequence: STEKVVQETVLVEERRVVHASGDA [EPB41L3]
- protein stability index [1]: 5.33 ± 0.23
- protein stability index [2]: 4.93 ± 0.16

Sequence: GGGYSSVRYSDCCERVVINVSGLR [KCNA4]
- protein stability index [1]: 2.23 ± 0.26
- protein stability index [2]: 2.34 ± 0.29

Sequence: YFFPVIFSKASSSLQLVFGIELME [MAGEA3]
- protein stability index [1]: 3.44 ± 0.27
- protein stability index [2]: 2.96 ± 0.25

Sequence: SGEDPTAAAPVAEVPTAAGALTPT [CLPTM1]
- protein stability index [1]: 5.42 ± 0.16
- protein stability index [2]: 5.47 ± 0.36

Sequence: LPTVGGQLGTAGQGFSYSKSNGRG [MYOZ1]
- protein stability index [1]: 4.3 ± 0.21
- protein stability index [2]: 4.4 ± 0.35

Sequence: WALGCVLYELASLKRAFEAANLPA [NEK8]
- protein stability index [1]: 2.99 ± 0.3
- protein stability index [2]: 2.9 ± 0.46

Sequence: HDGSSYLNSVERYDPKTNQWSSDV [KLHL20]
- protein stability index [1]: 4.46 ± 0.25
- protein stability index [2]: 4.27 ± 0.4

Sequence: QILEGELFDFDLEVKPVLEVLVGK [RSPH3]
- protein stability index [1]: 2.13 ± 0.58
- protein stability index [2]: 2.37 ± 0.67

Sequence: HGSQGTYSNTKENGINGELTSADR [MAP2]
- protein stability index [1]: 5.11 ± 0.24
- protein stability index [2]: 5.17 ± 0.22

Sequence: DSKPESALGAPSKSPSSPQAAFTQ [TBX5]
- protein stability index [1]: 5.18 ± 0.36
- protein stability index [2]: 5.21 ± 0.19

Sequence: LYRQHQAQIDQYVGLVTNQLSHIK [RTN2]
- protein stability index [1]: 2.08 ± 0.34
- protein stability index [2]: 2.05 ± 0.4

Sequence: KIRKIHTQRQYKEDESQSEEENDY [CEP70]
- protein stability index [1]: 5.14 ± 0.21
- protein stability index [2]: 5.16 ± 0.18

Sequence: PTWIIDPIDGTTNFVHRFPFVAVS [IMPA1]
- protein stability index [1]: 2.36 ± 0.22
- protein stability index [2]: 2.25 ± 0.25

Sequence: SGDFRSSTEDMERALSEYLAVFAR [P3H4]
- protein stability index [1]: 3.44 ± 0.23
- protein stability index [2]: 4.11 ± 0.17

Sequence: KGTILYLQKDEYRPDKALSEGDLK [PSD2]
- protein stability index [1]: 3.99 ± 0.21
- protein stability index [2]: 4.04 ± 0.18

Sequence: SLGLDHCHSFISGTAPLNQETAEF [ACSBG2]
- protein stability index [1]: 4.18 ± 0.21
- protein stability index [2]: 4.06 ± 0.16

Sequence: SQDEPIALDKQHSRDSAAITHSTY [NOL4L]
- protein stability index [1]: 5.01 ± 0.22
- protein stability index [2]: 5.08 ± 0.16

Sequence: SLVSLVLYNMDLSDDHIRVIVQLH [ZER1]
- protein stability index [1]: 2.63 ± 0.41
- protein stability index [2]: 2.71 ± 0.54

Sequence: PGKKKIRWDPVRRRFIQSCPIIRI [KLHDC10]
- protein stability index [1]: 2.01 ± 0.29
- protein stability index [2]: 2.1 ± 0.12

Sequence: LQNKVPLLGSSTACIVVLDRTSHR [PPTC7]
- protein stability index [1]: 2.14 ± 0.16
- protein stability index [2]: 2.32 ± 0.33

Sequence: MDGSGEQPRGGVSSRIEQGEWGGR
- protein stability index [1]: 4.58 ± 0.43
- protein stability index [2]: 4.58 ± 0.17

Sequence: HTNCFELSIYVGCDKYPHESQLPE [CPXM2]
- protein stability index [1]: 2.54 ± 0.34
- protein stability index [2]: 2.44 ± 0.051

Sequence: TFFEVSPLCNFNVIESFTELSRIV [RAB40C]
- protein stability index [1]: 2.46 ± 0.63
- protein stability index [2]: 2.15 ± 0.43

Sequence: TEWACILRRKTPRHKQPTLLMVRA [C6orf223]
- protein stability index [1]: 2.19 ± 0.57
- protein stability index [2]: 2.17 ± 0.097

Sequence: NTLVTKTMEDTLMTVKQYEAARLE [ARFIP2]
- protein stability index [1]: 4.19 ± 0.3
- protein stability index [2]: 4.55 ± 0.23

Sequence: HIIRIGDLKPTGEIPKQVKVKKLK [DENND6A]
- protein stability index [1]: 2.73 ± 0.2
- protein stability index [2]: 3.12 ± 0.19

Sequence: QRTVGQLMELCRLYHRADVEKVLR [EDARADD]
- protein stability index [1]: 2.38 ± 0.45
- protein stability index [2]: 2 ± 0.22

Sequence: PGSTSPLETSGNPNGRYGSGYLLA [SLC6A17]
- protein stability index [1]: 3.44 ± 0.19
- protein stability index [2]: 3.72 ± 0.33

Sequence: NSDPEVVNVDNLLAAAVVQEHSNS [C18orf25]
- protein stability index [1]: 5.19 ± 0.35
- protein stability index [2]: 5.33 ± 0.2

Sequence: PLNRFSSVPLDPMERPMSQADLEL [CBY2]
- protein stability index [1]: 4.47 ± 0.18
- protein stability index [2]: 4.53 ± 0.28

Sequence: LRLHDNPALKECIQGADTIRCVYI [CRY1]
- protein stability index [1]: 2.6 ± 0.38
- protein stability index [2]: 2.41 ± 0.3

Sequence: AGDGDTSNFETYPENDWDTAAPVP [PRKX]
- protein stability index [1]: 5.33 ± 0.33
- protein stability index [2]: 5.14 ± 0.32

Sequence: TSPTRQHHVEREKDHSSSRPSSPR [BTBD10]
- protein stability index [1]: 5.38 ± 0.12
- protein stability index [2]: 5.45 ± 0.092

Sequence: KDPRQWTETHVRDWVMWAVNEFSL [ETS1]
- protein stability index [1]: 2.67 ± 1.1
- protein stability index [2]: 2.23 ± 0.34

Sequence: LPLAYQQTSAFARQPRDELERVRV [TMEM175]
- protein stability index [1]: 4.01 ± 0.35
- protein stability index [2]: 4.1 ± 0.27

Sequence: AFCALVHSFFPDAFDYNSLSPTQR [SMTNL2]
- protein stability index [1]: 2.61 ± 0.56
- protein stability index [2]: 2.21 ± 0.31

Sequence: AGIGRTGTFCSLDICLAQLEELGT [PTPN9]
- protein stability index [1]: 2.23 ± 0.24
- protein stability index [2]: 2.62 ± 0.64

Sequence: PLLSGVAQEVSPCGPPSLGAVLAL [MFSD9]
- protein stability index [1]: 2.4 ± 0.35
- protein stability index [2]: 2.42 ± 0.18

Sequence: LCQKSNDISIHHFTCDEENVFAAV [WDR41]
- protein stability index [1]: 2.84 ± 0.18
- protein stability index [2]: 2.91 ± 0.31

Sequence: WESSAGGSFTVRADHGEPIGRGTK [HSP90AB1]
- protein stability index [1]: 4.83 ± 0.28
- protein stability index [2]: 4.79 ± 0.55

Sequence: KALTTLCDLADRELVVIIGWAKHI [ESRRG]
- protein stability index [1]: 2.83 ± 0.38
- protein stability index [2]: 2.79 ± 0.62

Sequence: NGTYAGPAPAFQPFFFTGAFPFNM [ANKRD40]
- protein stability index [1]: 2.32 ± 1.2
- protein stability index [2]: 2.51 ± 0.5

Sequence: GHSSSVEMFLYFEDHGLVTCSADH [WDR41]
- protein stability index [1]: 2.16 ± 0.34
- protein stability index [2]: 2.25 ± 0.29

Sequence: GEDQWNPNGKHSTNFVSRYDPRFN [KLHL14]
- protein stability index [1]: 3.83 ± 0.23
- protein stability index [2]: 3.57 ± 0.41

Sequence: LASGLVVFFLFPHSVLVDDDGIKV [TMEM106C]
- protein stability index [1]: 2.92 ± 0.48
- protein stability index [2]: 2.86 ± 0.49

Sequence: GILGFNSAEWFITAVGAILAGGLC [ACSBG2]
- protein stability index [2]: 3.62 ± 0.54

Sequence: QDGSPTTSRRPSGTGTGPEDGRPS [PDLIM4]
- protein stability index [1]: 5.37 ± 0.22
- protein stability index [2]: 5.66 ± 0.16

Sequence: DAGEVSYLPRDFSTYRPLPDPSVW [MYORG]
- protein stability index [1]: 3.29 ± 0.17
- protein stability index [2]: 3.27 ± 0.38

Sequence: RDGRRDRYSSDTTPLLNGSSQDRM [GOSR1]
- protein stability index [1]: 4.76 ± 0.07
- protein stability index [2]: 4.85 ± 0.2

Sequence: GSSSFSLKGYPSLMRSQSPKAQPQ [TRIM29]
- protein stability index [1]: 3.76 ± 0.26
- protein stability index [2]: 3.73 ± 0.28

Sequence: SDKEIVAEAERLDVKAMGPLVLTE [EIF5]
- protein stability index [1]: 5.08 ± 0.054
- protein stability index [2]: 5.23 ± 0.31

Sequence: ASLPSQKYPGPQAEGDSEGLSQGL [CHGA]
- protein stability index [1]: 5.2 ± 0.28
- protein stability index [2]: 5.25 ± 0.17

Sequence: YSFISLFIYMVLSLFIALITGAYD [MCOLN1]
- protein stability index [1]: 3.14 ± 0.48
- protein stability index [2]: 3.22 ± 0.45

Sequence: RRCKPKKPTRRDASPESPSKKGPI [GNAS]
- protein stability index [1]: 5.15 ± 0.21
- protein stability index [2]: 5.23 ± 0.22

Sequence: KKAQGKTQQNRKLTDFYPVRRSSR [KMT5A]
- protein stability index [1]: 3.29 ± 0.54
- protein stability index [2]: 3.86 ± 0.39

Sequence: EPVLTQTSEQAPSSAPRDVQARML [PTPRD]
- protein stability index [1]: 5.13 ± 0.26
- protein stability index [2]: 5.31 ± 0.26
